Results as given in the supplement of paper PMC10567573.

B1: MED27 (parent)
chain: YNENVYTEDGKLDIWSKSNYQVFQ

Variants of: B1
Assay: protein stability index of a GFP-peptide fusion (GPS, HEK-293T) (PSI 1-6); higher = more stable
Conditions: c terminus: a fixed tail appended
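Also: lentivirally expressed fusions sorted by FACS into six bins by GFP to DsRed ratio, PSI derived from sequencing read proportions per bin multiplied by bin number.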

Variant	protein stability index
YNENVYTEDGKLDIWSKSWYQVFQ	1.73
YNENVYTEDGKLDIWSKSQYQVFQ	2.26
YNENVYTEDGKLDIWSKSPYQVFQ	1.88
YNENVYTEDGKLDIWSKSLYQVFQ	1.58
YNENVYTEDGKLDIWSKSCYQVFQ	1.59
YNENVYTEDGKLDIWSKSAYQVFQ	2.52
YNENVYTEDGKLDIWSKSDYQVFQ	2.75
YNENVYTEDGKLDIWSKSFYQVFQ	1.67
YNENVYTEDGKLDIWSKSVYQVFQ	1.58
YNENVYTEDGKLDIWSKSSYQVFQ	2.05
YNENVYTEDGKLDIWSKSTYQVFQ	1.78
YNENVYTEDGKLDIWSKSKYQVFQ	1.96
YNENVYTEDGKLDIWSKSGYQVFQ	1.96
YNENVYTEDGKLDIWSKSHYQVFQ	2.19
YNENVYTEDGKLDIWSKSEYQVFQ	3.36
YNENVYTEDGKLDIWSKSYYQVFQ	2.56
YNENVYTEDGKLDIWSKSMYQVFQ	1.94
YNENVYTEDGKLDIWSKSRYQVFQ	2.4
YNENVYTEDGKLDIWSKSNYQDFQ	2.83
YNENVYTEDGKLDIWSKSNYQCFQ	2.56
YNENVYTEDGKLDIWSKSNYQAFQ	2.3
YNENVYTEDGKLDIWSKSNYQWFQ	1.76
YNENVYTEDGKLDIWSKSNYQNFQ	2.41
YNENVYTEDGKLDIWSKSNYQQFQ	2.73

Variant	protein stability index
YNENVYTEDGKLDIWSKSNYQFFQ	2.79
YNENVYTEDGKLDIWSKSNYQHFQ	2.27
YNENVYTEDGKLDIWSKSNYQTFQ	2.45
YNENVYTEDGKLDIWSKSNYQEFQ	2.52
YNENVYTEDGKLDIWSKSNYQKFQ	2.4
YNENVYTEDGKLDIWSKSNYQIFQ	2.22
YNENVYTEDGKLDIWSKSNYQSFQ	2.5
YNENVYTEDGKLDIWSKSNYQGFQ	2.24
YNENVYTEDGKLDIWSKSNYQMFQ	2.37
YNENVYTEDGKLDIWSKSNYQRFQ	2.21
YNENVYTEDGKLDIWSKSNYQLFQ	2.28
YNENVYTEDGKLDIWSKSNYQPFQ	2.66
YNENVYTEDGKLDIWSKSNYQYFQ	2.42
YNENVYTEDGKLDIWEKSNYQVFQ	2.6
YNENVYTEDGKLDIWHKSNYQVFQ	1.93
YNENVYTEDGKLDIWAKSNYQVFQ	2.45
YNENVYTEDGKLDIWKKSNYQVFQ	2.04
YNENVYTEDGKLDIWRKSNYQVFQ	1.78
YNENVYTEDGKLDIWPKSNYQVFQ	2.05
YNENVYTEDGKLDIWCKSNYQVFQ	2.06
YNENVYTEDGKLDIWFKSNYQVFQ	2.87
YNENVYTEDGKLDIWQKSNYQVFQ	2.26
YNENVYTEDGKLDIWDKSNYQVFQ	3.25
YNENVYTEDGKLDIWWKSNYQVFQ	1.91

Variant	protein stability index
YNENVYTEDGKLDIWTKSNYQVFQ	2.38
YNENVYTEDGKLDIWNKSNYQVFQ	2.12
YNENVYTEDGKLDIWYKSNYQVFQ	2.02
YNENVYTEDGKLDIWMKSNYQVFQ	1.81
YNENVYTEDGKLDIWVKSNYQVFQ	2.06
YNENVYTEDGKLDIWIKSNYQVFQ	1.98
YNENVYTEDGKLDIWGKSNYQVFQ	2.33
YNENVYTEDGKLDIWLKSNYQVFQ	1.82
YNENVYTEDGKLDIWSKWNYQVFQ	1.68
YNENVYTEDGKLDIWSKDNYQVFQ	3.09
YNENVYTEDGKLDIWSKANYQVFQ	2.34
YNENVYTEDGKLDIWSKPNYQVFQ	2.13
YNENVYTEDGKLDIWSKKNYQVFQ	1.97
YNENVYTEDGKLDIWSKYNYQVFQ	2.26
YNENVYTEDGKLDIWSKVNYQVFQ	2.58
YNENVYTEDGKLDIWSKGNYQVFQ	1.91
YNENVYTEDGKLDIWSKQNYQVFQ	2.56
YNENVYTEDGKLDIWSKHNYQVFQ	2.42
YNENVYTEDGKLDIWSKRNYQVFQ	1.52
YNENVYTEDGKLDIWSKMNYQVFQ	2.21
YNENVYTEDGKLDIWSKCNYQVFQ	1.86
YNENVYTEDGKLDIWSKENYQVFQ	3.33
YNENVYTEDGKLDIWSKINYQVFQ	1.96
YNENVYTEDGKLDIWSKLNYQVFQ	2

Variant	protein stability index
YNENVYTEDGKLDIWSKNNYQVFQ	2.69
YNENVYTEDGKLDIWSKFNYQVFQ	1.36
YNENVYTEDGKLDIWSKTNYQVFQ	2.62
YNENVYTEDGKLDIWSKSNYVVFQ	1.82
YNENVYTEDGKLDIWSKSNYSVFQ	1.97
YNENVYTEDGKLDIWSKSNYHVFQ	2.64
YNENVYTEDGKLDIWSKSNYNVFQ	2.04
YNENVYTEDGKLDIWSKSNYIVFQ	2.44
YNENVYTEDGKLDIWSKSNYKVFQ	2.44
YNENVYTEDGKLDIWSKSNYCVFQ	2.01
YNENVYTEDGKLDIWSKSNYEVFQ	2.09
YNENVYTEDGKLDIWSKSNYAVFQ	2.46
YNENVYTEDGKLDIWSKSNYWVFQ	2.45
YNENVYTEDGKLDIWSKSNYRVFQ	2.23
YNENVYTEDGKLDIWSKSNYTVFQ	2.76
YNENVYTEDGKLDIWSKSNYPVFQ	1.98
YNENVYTEDGKLDIWSKSNYYVFQ	2.02
YNENVYTEDGKLDIWSKSNYLVFQ	2.07
YNENVYTEDGKLDIWSKSNYDVFQ	2.41
YNENVYTEDGKLDIWSKSNYGVFQ	1.59
YNENVYTEDGKLDIWSKSNYFVFQ	1.79
YNENVYTEDGKLDIWSKSNYMVFQ	2.21
